Here are results for two substances from PMC10942602.

Assay [1] has as its target GFP-Nrxn3α(25b+) (rat). The assay can be described thus: immunostaining of cells or tissue; co-culture (2 days) of HEK293 cells secreting myc-tagged C1ql2 or C1ql2.K262E with primary hippocampal neurons transfected with GFP-Nrxn3α(25b+); fixed, stained for myc and GFP; area of the masked HEK293 cell covered by GFP-Nrxn3α(25b+)-positive neuronal profiles; 25 cells per condition and experiment, N=3.

In assay [2] the target is GFP-Nrxn3α(25b+) (rat).
Sequence of GFP-Nrxn3α(25b+) (rat) (Q07310 28-1578): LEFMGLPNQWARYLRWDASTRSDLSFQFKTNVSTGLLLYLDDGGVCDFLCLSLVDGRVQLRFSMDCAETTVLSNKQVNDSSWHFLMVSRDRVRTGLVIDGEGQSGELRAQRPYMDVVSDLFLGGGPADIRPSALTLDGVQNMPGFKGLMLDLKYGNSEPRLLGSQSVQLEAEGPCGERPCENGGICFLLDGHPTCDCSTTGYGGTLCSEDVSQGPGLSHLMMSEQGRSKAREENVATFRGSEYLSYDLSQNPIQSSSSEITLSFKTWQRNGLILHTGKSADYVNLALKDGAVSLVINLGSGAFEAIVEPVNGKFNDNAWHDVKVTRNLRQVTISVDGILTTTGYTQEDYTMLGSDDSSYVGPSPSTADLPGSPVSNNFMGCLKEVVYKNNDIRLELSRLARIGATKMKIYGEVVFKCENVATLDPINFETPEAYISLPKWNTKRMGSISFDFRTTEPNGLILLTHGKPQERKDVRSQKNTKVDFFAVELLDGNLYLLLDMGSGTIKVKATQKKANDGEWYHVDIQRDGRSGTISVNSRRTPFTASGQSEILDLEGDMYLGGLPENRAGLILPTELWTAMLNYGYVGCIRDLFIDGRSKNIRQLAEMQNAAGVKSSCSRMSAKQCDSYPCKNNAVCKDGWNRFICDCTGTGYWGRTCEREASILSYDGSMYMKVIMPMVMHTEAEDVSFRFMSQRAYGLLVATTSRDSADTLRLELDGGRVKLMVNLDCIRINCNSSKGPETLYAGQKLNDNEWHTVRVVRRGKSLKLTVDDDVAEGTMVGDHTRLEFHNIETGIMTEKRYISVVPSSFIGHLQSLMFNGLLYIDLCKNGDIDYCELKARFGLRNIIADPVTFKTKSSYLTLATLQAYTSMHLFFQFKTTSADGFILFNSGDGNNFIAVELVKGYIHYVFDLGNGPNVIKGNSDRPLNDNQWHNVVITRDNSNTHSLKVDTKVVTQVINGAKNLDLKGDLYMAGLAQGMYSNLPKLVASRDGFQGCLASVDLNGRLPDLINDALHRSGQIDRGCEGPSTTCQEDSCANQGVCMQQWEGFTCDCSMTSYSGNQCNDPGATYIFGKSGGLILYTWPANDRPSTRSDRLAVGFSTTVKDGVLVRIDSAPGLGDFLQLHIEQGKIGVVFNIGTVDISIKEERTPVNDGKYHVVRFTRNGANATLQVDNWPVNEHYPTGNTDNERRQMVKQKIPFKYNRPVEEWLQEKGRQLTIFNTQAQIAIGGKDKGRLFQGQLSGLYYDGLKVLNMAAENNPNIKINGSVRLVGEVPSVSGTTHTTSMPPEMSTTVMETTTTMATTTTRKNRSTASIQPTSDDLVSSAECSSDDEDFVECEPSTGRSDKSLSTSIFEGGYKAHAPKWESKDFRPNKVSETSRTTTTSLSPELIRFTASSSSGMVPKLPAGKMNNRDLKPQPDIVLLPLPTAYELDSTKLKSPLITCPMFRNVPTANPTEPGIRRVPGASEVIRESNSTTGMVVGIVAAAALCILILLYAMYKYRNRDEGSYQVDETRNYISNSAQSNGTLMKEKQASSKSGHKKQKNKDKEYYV

Sequence of 6xHis-myc-tagged C1ql2 (Q8CFR0 22-287): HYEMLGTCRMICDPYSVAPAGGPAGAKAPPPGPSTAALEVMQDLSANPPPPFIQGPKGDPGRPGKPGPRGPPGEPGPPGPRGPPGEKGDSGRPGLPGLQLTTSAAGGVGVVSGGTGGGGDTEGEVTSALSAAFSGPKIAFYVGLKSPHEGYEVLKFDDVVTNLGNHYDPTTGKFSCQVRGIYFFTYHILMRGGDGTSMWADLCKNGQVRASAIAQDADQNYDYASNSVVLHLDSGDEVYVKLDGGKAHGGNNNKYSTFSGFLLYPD

Regarding “6xHis-myc-tagged C1ql2 (from UniProt Q8CFR0 22-287) (natural protein)”, the surface area of HEK293 cells covered by GFP-Nrxn3α(25b+)-positive neuronal profiles with GFP-Nrxn3α(25b+) (rat) [1] was 40.

With “6xHis-myc-tagged C1ql2.K262E (from UniProt Q8CFR0 22-287) (natural protein)”, the vGlut1 accumulation in GFP-Nrxn3α(25b+)-expressing neurons contacting HEK293 cells expressing C1ql2.K262E (area of the HEK293 cell covered by vGlut1) in the assay with GFP-Nrxn3α(25b+) (rat) [2] worked out at 16.9.
